Tests used:
Assay in all cases: ELISA; wt or alanine-mutant E2 from 293T lysate captured by GNA on microtiter plates, amount normalised by CBH-17 binding; CD81-LEL added at 20 µg/ml; bound CD81-LEL detected with anti-CD81; percent relative to wt
[1] = molecular target: H77C E1E2 mutant N428A (hepatitis C virus genotype 1a, isolate H77C)
[2] = molecular target: H77C E1E2 mutant Y443A (hepatitis C virus genotype 1a, isolate H77C)
[3] = molecular target: H77C E1E2 mutant K446A (hepatitis C virus genotype 1a, isolate H77C)

Substance: CD81 large extracellular loop fused to glutathione S-transferase (from UniProt P60033 1-236) (domain or fragment)
- percent CD81 binding relative to wt [1]: 10%
- percent CD81 binding relative to wt [2]: 20%
- percent CD81 binding relative to wt [3]: 83%
